The text below walks through data of US20220185894A1 (F STAR THERAPEUTICS, published 2022).

Numbering of substitutions follows the chain as printed.

Assay [1] deals with T1, human FcγRIIa (R&D Systems, 1330-CD) (human, UniProt P12318 36-218, limits assumed).
T1 construct: Bought recombinant protein
T1 sequence (looked up): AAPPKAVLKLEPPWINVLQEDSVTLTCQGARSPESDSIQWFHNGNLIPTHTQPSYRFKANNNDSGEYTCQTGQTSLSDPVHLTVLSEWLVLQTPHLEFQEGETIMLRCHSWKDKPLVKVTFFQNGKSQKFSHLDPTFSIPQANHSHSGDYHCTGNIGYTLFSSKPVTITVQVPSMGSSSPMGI
The assay is described as follows: SPR, Biacore T200; FcγR immobilised, 500 µg/ml injected. How it is done: (§1) The introduction of the LALA mutation in the CH2 domain of human IgG1 is known to reduce Fc γ receptor binding (Bruhns, P., et al. (2009); and Xu, D. et al. (2000)). […] The human FcγR binding assay was performed on a Biacore T200 instrument (GE Healthcare) using the Fcabs in the mock mAb² format. […] For each immobilized chip a flow cell was left blank for background subtraction. FcγR were immobilized using a concentration of 5 μg/ml in sodium acetate pH5 (ForteBio, 18-1069) and injected at a flow rate of 10 μl/min in 15 second cycles until the required immobilization level was reached.
(§2) The flow cells were regenerated by injecting 10 mM sodium hydroxide (VWR, 28244.262) at a flow rate of 100 μl/min for 30 seconds. The data analysis was performed with BiaEvaluation software version 3.2 RC1 by double referencing against the blank flow cell (without immobilized FcγR) and subtracting a buffer cycle from test mAb².

Assay [2] has as its target T2, human FcγRIIb/c (R&D Systems, 1875-CD) (human, UniProt P31994 46-217).
T2 construct: Bought recombinant protein
T2 sequence (looked up): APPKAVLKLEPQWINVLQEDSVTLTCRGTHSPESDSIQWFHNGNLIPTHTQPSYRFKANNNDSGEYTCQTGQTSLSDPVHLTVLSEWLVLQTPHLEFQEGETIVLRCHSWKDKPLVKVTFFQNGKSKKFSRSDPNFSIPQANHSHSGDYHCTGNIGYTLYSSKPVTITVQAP
The description is as above. How it is done: as §1, §2

Assay [3] has as its target T3, cynomolgus LAG-3 expressed on cells (cynomolgus monkey, UniProt P18627 24-525 (human entry)).
T3 construct: also called cLAG-3; cyno LAG-3
T3 chain: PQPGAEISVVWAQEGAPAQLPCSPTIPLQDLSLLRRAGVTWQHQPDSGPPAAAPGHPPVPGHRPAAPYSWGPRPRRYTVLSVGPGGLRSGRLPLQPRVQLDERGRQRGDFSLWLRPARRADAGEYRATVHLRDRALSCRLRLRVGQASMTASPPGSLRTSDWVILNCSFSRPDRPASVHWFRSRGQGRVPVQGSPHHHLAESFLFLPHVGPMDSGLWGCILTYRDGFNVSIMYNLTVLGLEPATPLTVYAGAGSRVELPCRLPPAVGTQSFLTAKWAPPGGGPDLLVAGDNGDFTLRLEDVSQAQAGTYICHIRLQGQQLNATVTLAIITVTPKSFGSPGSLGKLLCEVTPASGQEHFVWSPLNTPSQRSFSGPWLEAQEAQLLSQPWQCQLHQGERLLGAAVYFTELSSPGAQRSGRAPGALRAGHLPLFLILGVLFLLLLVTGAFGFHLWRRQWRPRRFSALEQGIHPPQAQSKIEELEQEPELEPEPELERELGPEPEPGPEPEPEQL
The assay is described as follows: flow cytometry on DO11.10 cells expressing cynomolgus LAG-3. How it is done: DO11.10:LAG-3 cell suspensions were prepared in PBS+2% BSA (Sigma, A7906) and seeded at […] with 50 μl/well in V-bottomed 96-well plates (Costar, 3897). […] The plates were washed and 100 μl/well of secondary antibody (anti-human Fc-488 antibody, Jackson ImmunoResearch, 109-546-098) diluted 1:1000 in PBS+2% BSA was then added and incubated for 30 mins at 4° C. in the dark. The plates were washed and resuspended in 100 μl of PBS containing DAPI (Biotium, 40043) at […]. The plates were read using Canto II flow cytometer (BD Bioscience). The dead cells were excluded and the fluorescence in the FITC channel (488 nm/530/30) was measured. The data was fit using log (agonist) vs response in GraphPad Prism Software.

The target of assay [4] is T4, mouse LAG-3 expressed on cells (mouse, UniProt Q61790 24-521).
T4 construct: also called mLAG-3; murine LAG-3 HEK
T4 sequence: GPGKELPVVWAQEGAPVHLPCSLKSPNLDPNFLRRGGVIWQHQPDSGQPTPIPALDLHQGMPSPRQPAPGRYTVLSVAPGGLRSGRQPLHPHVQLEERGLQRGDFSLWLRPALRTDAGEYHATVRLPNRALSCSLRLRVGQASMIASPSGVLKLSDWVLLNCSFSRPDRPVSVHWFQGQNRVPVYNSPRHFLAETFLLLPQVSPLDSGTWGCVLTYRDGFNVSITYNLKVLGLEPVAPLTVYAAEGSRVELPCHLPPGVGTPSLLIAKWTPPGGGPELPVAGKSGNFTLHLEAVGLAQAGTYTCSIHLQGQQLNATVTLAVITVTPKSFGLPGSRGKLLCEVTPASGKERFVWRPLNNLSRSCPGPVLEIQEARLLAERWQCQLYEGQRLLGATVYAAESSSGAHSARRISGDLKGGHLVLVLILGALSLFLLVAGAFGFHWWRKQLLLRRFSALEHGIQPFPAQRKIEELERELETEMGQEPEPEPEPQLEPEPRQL
The assay is described as follows: flow cytometry on HEK cells expressing mouse LAG-3. The method, then:
HEK cells expressing mLAG-3 grown in DMEM (Life Technologies, 61965-026) containing 10% FBS (Life Technologies, 10270-1-6), 100 μg/ml Hygromycin B (Melford Laboratories Ltd, Z2475), 15 μg/ml Blasticidin (Melford Laboratories Ltd, B1105) and 1 μg/ml Doxycyclin (Sigma, D9891) were detached from tissue culture flasks using cell dissociation buffer (Life Technologies, 13151-014). Cells were collected by centrifuged at 1500 rpm for 3 min at 4° C. to pellet the cells and then resuspended in 1×DPBS then seeded in V-bottom 96-well plates (Costar, 3897) at 1.2×10⁵ cells/well in 30 μl. A 1:1 volume of a dilution series of the mAb² (or control mAb) was added and incubated with the cells for 1 h at 4° C. The plates were washed and secondary antibody (Anti-human Fc-488, Jackson ImmunoResearch, 109-546-098) was diluted 1:1000 in PBS and 60 μl was added to the cells for 30 min at 4° C. (plates were kept in the dark). The plates were then washed and the cells resuspended in 60 μl PBS containing 1 μg/ml DAPI (Biotium, 40043). The plates were read using Canto II flow cytometer (BD Bioscience). Dead cells were excluded and the fluorescence in the FITC channel (488 nm/530/30) was measured. The data was fitted using log (agonist) vs response in GraphPad Prism Software.

Assay [5] concerns the target T5, human FcγRIIIa (R&D Systems, 4325-FC) (human, UniProt P08637 17-208).
T5 construct: Bought recombinant protein
Kind of assay: SPR, Biacore T200; FcγR immobilised, 200 µg/ml injected. How it is done: as §1, §2

For assay [6], the target named is T6, human FcγRI (R&D Systems, 1257-FC) (human, UniProt P12314 16-288).
T6 construct: Bought recombinant protein
The description is as above. The method, then:
as §1, §2

T6 sequence (P12314 16-288 limits assumed): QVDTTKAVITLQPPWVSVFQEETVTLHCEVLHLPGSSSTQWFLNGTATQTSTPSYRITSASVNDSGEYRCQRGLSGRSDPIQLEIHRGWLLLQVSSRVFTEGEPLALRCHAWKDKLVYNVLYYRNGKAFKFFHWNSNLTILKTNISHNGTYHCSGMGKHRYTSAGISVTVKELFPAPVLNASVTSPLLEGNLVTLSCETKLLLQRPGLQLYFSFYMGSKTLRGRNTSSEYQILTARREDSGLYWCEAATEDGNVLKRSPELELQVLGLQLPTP
T5 sequence (P08637 17-208 limits assumed): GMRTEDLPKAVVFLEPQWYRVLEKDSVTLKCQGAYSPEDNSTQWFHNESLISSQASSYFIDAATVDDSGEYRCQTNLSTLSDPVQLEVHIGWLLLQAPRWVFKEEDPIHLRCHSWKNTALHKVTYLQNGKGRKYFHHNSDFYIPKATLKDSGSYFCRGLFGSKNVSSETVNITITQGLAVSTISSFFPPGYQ

B1: anti-human LAG-3/FITC mock mAb2 FS18-7-9/4420 comprising LALA mutation (bispecific antibody, human IgG1, kappa, L234A L235A)
heavy: EVKLDETGGGLVQPGRPMKLSCVASGFTFSDYWMNWVRQSPEKGLEWVAQIRNKPYNYETYYSDSVKGRFTISRDDSKSSVYLQMNNLRVEDMGIYYCTGSYYGMDYWGQGTSVTVSSASTKGPSVFPLAPSSKSTSGGTAALGCLVKDYFPEPVTVSWNSGALTSGVHTFPAVLQSSGLYSLSSVVTVPSSSLGTQTYICNVNHKPSNTKVDKKVEPKSCDKTHTCPPCPAPEAAGGPSVFLFPPKPKDTLMISRTPEVTCVVVDVSHEDPEVKFNWYVDGVEVHNAKTKPREEQYNSTYRVVSVLTVLHQDWLNGKEYKCKVSNKALPAPIEKTISKAKGQPREPQVYTLPPSWDEPWGEDVSLTCLVKGFYPSDIAVEWESNGQPENNYKTTPPVLDSDGSFFLYSKLTVPYDRWVWPDEFSCSVMHEALHNHYTQKSLSLSPG
light: DVVMTQTPLSLPVSLGDQASISCRSSQSLVHSNGNTYLRWYLQKPGQSPKVLIYKVSNRFSGVPDRFSGSGSGTDFTLKISRVEAEDLGVYFCSQSTHVPWTFGGGTKLEIKRTVAAPSVFIFPPSDEQLKSGTASVVCLLNNFYPREAKVQWKVDNALQSGNSQESVTEQDSKDSTYSLSSTLTLSKADYEKHKVYACEVTHQGLSSPVTKSFNRGEC
notes: Human IgG1 format; also called FS18-7-9/4420LALA; FS18-7-09/4420LALA
Regarding B1, the “binding response at end of association (RU)” value (from here on “binding response at end”) is -9.8 RU in assay [1], -8.5 RU in assay [2], 6.6 RU in assay [5] and 1.4 RU in assay [6]. Moreover, the EC50 in assay [3] amounted to 0.6 nM; in assay [4], 19 nM.

B2: anti-human LAG-3/FITC mock mAb2 FS18-7-62/4420 comprising LALA mutation (bispecific antibody, human IgG1, kappa, L234A L235A)
heavy: B1 heavy with Q387I, N390W
light: B1 light
notes: also called FS18-7-62/4420LALA; FS18-7-62 in mock mAb2 format
With B2, the “binding response at end” value in assay [1] is -10 RU; in assay [2] it was -8.5 RU; in assay [5], 0.7 RU; in assay [6], -0.9 RU. In assay [3], this molecule gave an EC50 of 0.5 nM.

B3: anti-human LAG-3/FITC mock mAb2 FS18-7-78/4420 comprising LALA mutation (bispecific antibody, human IgG1, kappa, L234A L235A)
heavy: B1 heavy with Q387Y, P388K, N390E
light: B1 light
notes: also called FS18-7-78/4420LALA; FS18-7-78 in mock mAb2 format
On to B3, for which the figures for the “binding response at end” value in assay [1], in assay [2] and in assay [6] were -10.7 RU, -9.2 RU and -0.3 RU, respectively. Besides, a half-maximal effect in assay [3] (EC50) was put at 0.5 nM.

B4: control anti-human LAG-3 mAb 25F7 (antibody, human IgG1, kappa, L234A L235A, V domains shown)
VH: QVQLQQWGAGLLKPSETLSLTCAVYGGSFSDYYWNWIRQPPGKGLEWIGEINHRGSTNSNPSLKSRVTLSLDTSKNQFSLKLRSVTAADTAVYYCAFGYSDYEYNWFDPWGQGTLVTVSS
VL: EIVLTQSPATLSLSPGERATLSCRASQSISSYLAWYQQKPGQAPRLLIYDASNRATGIPARFSGSGSGTDFTLTISSLEPEDFAVYYCQQRSNWPLTFGQGTNLEIKR
notes: also called benchmark anti-human LAG-3 mAb
Regarding B4, the binding result in assay [4] is reported as “no binding”.
